Measurements reported in the supplement of paper PMC7877785.
± gives the uncertainty stated by the source.

Assay: self-splicing fitness, log relative to wild type (ln ratio); higher = more splicing; Tetrahymena group I intron in knt gene, E. coli kanamycin selection, DiMSum; sequences stand for … in CUCUCU…GGAGGGAAAAGUUAUCAGGCAUGCACCUGGUAGCUAGUCUUUAAACCAAUAGAUUGCAUCGGUUUAAAAGGCAAGACCGUCAAAUUGCGGGAAAGGGGUCAACAGCCGUUCAGUACCAAGUCUCAGGGGAAACUUUGAGAUGGCCUUGCAAAGGGUAUGGUAAUAAGCUGACGGACAUGGUCCUAACCACGCAGCCAAGUCCUAAGUCAACAGAUCUUCUGUUGAUAUGGAUGCAGUUCACAGACUAAAUGUCGGUCGGGGAAGAUGUAUUCUUCUCAUAAGAUAUAGUCGGACCUCUCCUUAAUGGGAGCUAGCGGAUGAAGUGAUGCAACACUGGAGCCGCUGGGAACUAAUUUGUAUGCGAAAGUAUAUUGAUUAGUUUUGGAGUACUCGUGGUCG
Method in brief: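 Six replicate transformations of E. coli BL21(DE3) with a pET-22b(+) library were grown overnight at 37°C or 30°C. The library randomised all eight P1ex-region intron nucleotides, the intron lying in the knt kanamycin-resistance gene, and plates were LB agar with or without 25 μg/mL kanamycin plus 100 μg/mL carbenicillin, 50 μM IPTG and 0.2% rhamnose. Pooled colonies were amplicon-sequenced on an Illumina HiSeq 2500, and fitness is the DiMSum error-weighted combination of wild-type-normalised replicate fold changes, kanamycin versus none.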

| Sequence | self-splicing fitness (ln) (30 °C) | self-splicing fitness (ln) (37 °C) |
| --- | --- | --- |
| CACAAGCAAUAUUACGUUCG | -0.461 ± 0.048 | 0.012 ± 0.06 |
| CACAAGCAAUAUUACGUUGC | -3.28 ± 0.1 | -2.66 ± 0.13 |
| CACCAGCAAUAUUACGAACA | -3.14 ± 0.17 | -0.953 ± 0.14 |
| CACCAGCAAUAUUACGACAA | -2.61 ± 0.23 | -2.73 ± 0.2 |
| CACCAGCAAUAUUACGACUU | -3.4 ± 0.14 | -2.69 ± 0.13 |
| CACCAGCAAUAUUACGAGCC | -3.37 ± 0.27 | -2.92 ± 0.32 |
| CACCAGCAAUAUUACGAGUA | -1.04 ± 0.06 | -0.515 ± 0.066 |
| CACCAGCAAUAUUACGAUAG | -0.377 ± 0.057 | 0.0494 ± 0.064 |
| CACCAGCAAUAUUACGAUGU | -3.07 ± 0.12 | -0.91 ± 0.085 |
| CACCAGCAAUAUUACGCACG | -0.655 ± 0.045 | 0.0962 ± 0.062 |
| CACCAGCAAUAUUACGCCAC | -3.58 ± 0.16 | -2.42 ± 0.17 |
| CACCAGCAAUAUUACGCCUA | -2.37 ± 0.16 | -1.52 ± 0.17 |
| CACCAGCAAUAUUACGCUCA | -1.42 ± 0.12 | -1.13 ± 0.17 |
| CACCAGCAAUAUUACGGAAA | -1.63 ± 0.1 | -2.03 ± 0.14 |
| CACCAGCAAUAUUACGGACA | -2.01 ± 0.1 | -0.603 ± 0.086 |
| CACCAGCAAUAUUACGGCCU | -2.6 ± 0.16 | -1.93 ± 0.16 |
| CACCAGCAAUAUUACGGCUC | -1.44 ± 0.075 | -0.828 ± 0.087 |
| CACCAGCAAUAUUACGGGAG | -2.61 ± 0.067 | -1.26 ± 0.076 |
| CACCAGCAAUAUUACGGGCA | -1.29 ± 0.069 | -0.343 ± 0.081 |
| CACCAGCAAUAUUACGGGUA | -0.28 ± 0.045 | -0.404 ± 0.055 |
| CACCAGCAAUAUUACGGGUC | -2.54 ± 0.07 | -2.17 ± 0.092 |
| CACCAGCAAUAUUACGGUGU | -3.39 ± 0.11 | -1.82 ± 0.12 |
| CACCAGCAAUAUUACGUAAC | -2.87 ± 0.13 | -0.914 ± 0.14 |
| CACCAGCAAUAUUACGUGAC | -4.86 ± 0.26 | -2.34 ± 0.21 |
| CACCAGCAAUAUUACGUGUG | -4.45 ± 0.17 | -3.63 ± 0.19 |

| Sequence | self-splicing fitness (ln) (30 °C) | self-splicing fitness (ln) (37 °C) |
| --- | --- | --- |
| CACCAGCAAUAUUACGUUAC | -4.48 ± 0.26 | -2.45 ± 0.18 |
| CACGAGCAAUAUUACGAGCG | -0.857 ± 0.086 | -1.33 ± 0.1 |
| CACGAGCAAUAUUACGAGGG | -3.64 ± 0.25 | -3.25 ± 0.33 |
| CACGAGCAAUAUUACGAUAC | -3.07 ± 0.24 | -2.73 ± 0.36 |
| CACGAGCAAUAUUACGAUGU | -3.52 ± 0.18 | -3.49 ± 0.24 |
| CACGAGCAAUAUUACGAUUA | -3.34 ± 0.31 | -2.12 ± 0.25 |
| CACGAGCAAUAUUACGAUUG | -2.19 ± 0.11 | -1.6 ± 0.13 |
| CACGAGCAAUAUUACGAUUU | -3.18 ± 0.18 | -1.99 ± 0.13 |
| CACGAGCAAUAUUACGCAUA | -3.1 ± 0.15 | -2.61 ± 0.18 |
| CACGAGCAAUAUUACGCGGU | -3.13 ± 0.15 | -3.5 ± 0.24 |
| CACGAGCAAUAUUACGCUUA | -2.83 ± 0.32 | -0.611 ± 0.12 |
| CACGAGCAAUAUUACGGCCC | -3.09 ± 0.28 | -2.95 ± 0.36 |
| CACGAGCAAUAUUACGGCCG | -0.354 ± 0.094 | -0.105 ± 0.13 |
| CACGAGCAAUAUUACGGCGA | -3.28 ± 0.19 | -2.69 ± 0.26 |
| CACGAGCAAUAUUACGGCUG | -1.39 ± 0.089 | -0.237 ± 0.11 |
| CACGAGCAAUAUUACGGGAC | -3.36 ± 0.2 | -2.55 ± 0.23 |
| CACGAGCAAUAUUACGGGUU | -3.2 ± 0.16 | -2.81 ± 0.22 |
| CACGAGCAAUAUUACGUAGG |  | -1.83 ± 0.21 |
| CACGAGCAAUAUUACGUCGA | -2.23 ± 0.35 | -2.81 ± 0.26 |
| CACGAGCAAUAUUACGUGAU | -3.91 ± 0.14 | -2.05 ± 0.14 |
| CACUAGCAAUAUUACGAAGC |  | -2.83 ± 0.35 |
| CACUAGCAAUAUUACGACAG | -0.114 ± 0.076 | 0.0358 ± 0.079 |
| CACUAGCAAUAUUACGAGGG | -3.29 ± 0.18 | -1.34 ± 0.15 |
| CACUAGCAAUAUUACGCAAC |  | -2.5 ± 0.29 |
| CACUAGCAAUAUUACGCAGG | -3.27 ± 0.12 | -1.26 ± 0.15 |

| Sequence | self-splicing fitness (ln) (30 °C) | self-splicing fitness (ln) (37 °C) |
| --- | --- | --- |
| CACUAGCAAUAUUACGCGCU | -3.62 ± 0.16 | -2.09 ± 0.14 |
| CACUAGCAAUAUUACGCGGC | -3.47 ± 0.28 | -2.97 ± 0.25 |
| CACUAGCAAUAUUACGGCUG | -0.972 ± 0.054 | 0.114 ± 0.065 |
| CACUAGCAAUAUUACGGGCG | -0.464 ± 0.087 | -0.0972 ± 0.084 |
| CACUAGCAAUAUUACGGGUC | -2.36 ± 0.14 | -2.27 ± 0.2 |
| CACUAGCAAUAUUACGGUCU | -1.55 ± 0.078 | -0.782 ± 0.11 |
| CACUAGCAAUAUUACGUAAA | -3.48 ± 0.18 | -2.61 ± 0.2 |
| CACUAGCAAUAUUACGUAAC | -3.68 ± 0.27 | -1.88 ± 0.24 |
| CACUAGCAAUAUUACGUAUA | -3.17 ± 0.36 | -1.5 ± 0.23 |
| CACUAGCAAUAUUACGUGCU | -3.69 ± 0.2 | -2.55 ± 0.15 |
| CACUAGCAAUAUUACGUUUA | -4.15 ± 0.23 | -2.68 ± 0.17 |
| CAGAAGCAAUAUUACGAAAC | -4.4 ± 0.46 | -2.18 ± 0.32 |
| CAGAAGCAAUAUUACGAAUG | -2.6 ± 0.14 | -0.683 ± 0.13 |
| CAGAAGCAAUAUUACGACAA | -2.84 ± 0.36 | -1.88 ± 0.31 |
| CAGAAGCAAUAUUACGACCU | -2.86 ± 0.4 | 0.0264 ± 0.23 |
| CAGAAGCAAUAUUACGCAGU | -2.53 ± 0.19 | -3.48 ± 0.23 |
| CAGAAGCAAUAUUACGCCCU |  | -1.83 ± 0.43 |
| CAGAAGCAAUAUUACGCCUC |  | -0.543 ± 0.28 |
| CAGAAGCAAUAUUACGCUUC |  | -3.54 ± 0.4 |
| CAGAAGCAAUAUUACGGAAA |  | -2.45 ± 0.36 |
| CAGAAGCAAUAUUACGGACA | -1.93 ± 0.16 | -0.876 ± 0.13 |
| CAGAAGCAAUAUUACGGCAC | -3.44 ± 0.41 | -1.87 ± 0.32 |
| CAGAAGCAAUAUUACGGCCC | -2.98 ± 0.44 |  |
| CAGAAGCAAUAUUACGGCUA | 0.172 ± 0.11 | -0.0647 ± 0.084 |
| CAGAAGCAAUAUUACGGCUU | -3.46 ± 0.21 | -3.66 ± 0.29 |

| Sequence | self-splicing fitness (ln) (30 °C) | self-splicing fitness (ln) (37 °C) |
| --- | --- | --- |
| CAGAAGCAAUAUUACGGGGC | -3.13 ± 0.17 | -2.89 ± 0.27 |
| CAGAAGCAAUAUUACGGUGA | -2.21 ± 0.096 | -1.13 ± 0.1 |
| CAGAAGCAAUAUUACGGUUU | -2.93 ± 0.093 | -2.83 ± 0.12 |
| CAGAAGCAAUAUUACGUACC | -2.33 ± 0.24 | -1.55 ± 0.27 |
| CAGAAGCAAUAUUACGUAGC | -3.8 ± 0.27 | -3.32 ± 0.28 |
| CAGAAGCAAUAUUACGUCCC | -2.92 ± 0.3 | -1.49 ± 0.28 |
| CAGAAGCAAUAUUACGUCGG | -1.61 ± 0.14 | -0.979 ± 0.2 |
| CAGAAGCAAUAUUACGUCUG | -3.35 ± 0.16 | -3.09 ± 0.21 |
| CAGAAGCAAUAUUACGUCUU | -1.7 ± 0.089 | -0.306 ± 0.11 |
| CAGAAGCAAUAUUACGUUAC |  | -2.72 ± 0.2 |
| CAGAAGCAAUAUUACGUUAU | -3.44 ± 0.35 | -2.75 ± 0.28 |
| CAGAAGCAAUAUUACGUUUA | -3.13 ± 0.18 | -1.95 ± 0.12 |
| CAGCAGCAAUAUUACGAAUU | -4.16 ± 0.27 | -2.23 ± 0.23 |
| CAGCAGCAAUAUUACGAGCC |  | -1.48 ± 0.23 |
| CAGCAGCAAUAUUACGAUGU | -4.21 ± 0.22 | -2.6 ± 0.15 |
| CAGCAGCAAUAUUACGAUUG | -2.36 ± 0.093 | -0.731 ± 0.09 |
| CAGCAGCAAUAUUACGCACU | -0.834 ± 0.1 | -1.8 ± 0.12 |
| CAGCAGCAAUAUUACGCCCU | -1.89 ± 0.1 | 0.0797 ± 0.13 |
| CAGCAGCAAUAUUACGCCGG | -0.792 ± 0.09 | -0.31 ± 0.098 |
| CAGCAGCAAUAUUACGCCUG | -3.7 ± 0.22 | -2.35 ± 0.21 |
| CAGCAGCAAUAUUACGCGAU | -3.91 ± 0.22 | -1.83 ± 0.17 |
| CAGCAGCAAUAUUACGCGGC | -4.03 ± 0.27 | -2.95 ± 0.18 |
| CAGCAGCAAUAUUACGCUAU | -2.47 ± 0.27 | -2 ± 0.18 |
